Laboratory results taken from patent US20240124535A1 (Molecular Partners, published 2024).
Positions count from the first letter of the chain named.

B1: Protein #2 (SEQ ID NO: 2 with a His-tag (SEQ ID NO: 1) fused to its N-terminus) (designed binder)
chain: MRGSHHHHHHGSDLGKKLLEAARAGQDDEVRELLKAGADVNAKDYFSHTPLHLAARNGHLKIVEVLLKAGADVNAKDFAGKTPLHLAANEGHLEIVEVLLKAGADVNAQDIFGKTPADIAADAGHEDIAEVLQKAA
B2: Protein #3 (SEQ ID NO: 3 with a His-tag (SEQ ID NO: 1) fused to its N-terminus) (designed binder)
chain: B1 chain with N89A, E90D
B3: Protein #4 (SEQ ID NO: 4 with a His-tag (SEQ ID NO: 1) fused to its N-terminus) (designed binder)
chain: B1 chain with N89D, E90A

target: T1, human serum albumin (human, UniProt P02768 25-609); experiment: SPR, ProteOn system (BioRad), in PBS
Procedure: Affinity of proteins of Example 2 to human serum albumin were determined by SPR measurements using a ProteOn system (BioRad) in PBS according to standard procedures known to the person skilled in the art.

T1 sequence (P02768 25-609 limits assumed): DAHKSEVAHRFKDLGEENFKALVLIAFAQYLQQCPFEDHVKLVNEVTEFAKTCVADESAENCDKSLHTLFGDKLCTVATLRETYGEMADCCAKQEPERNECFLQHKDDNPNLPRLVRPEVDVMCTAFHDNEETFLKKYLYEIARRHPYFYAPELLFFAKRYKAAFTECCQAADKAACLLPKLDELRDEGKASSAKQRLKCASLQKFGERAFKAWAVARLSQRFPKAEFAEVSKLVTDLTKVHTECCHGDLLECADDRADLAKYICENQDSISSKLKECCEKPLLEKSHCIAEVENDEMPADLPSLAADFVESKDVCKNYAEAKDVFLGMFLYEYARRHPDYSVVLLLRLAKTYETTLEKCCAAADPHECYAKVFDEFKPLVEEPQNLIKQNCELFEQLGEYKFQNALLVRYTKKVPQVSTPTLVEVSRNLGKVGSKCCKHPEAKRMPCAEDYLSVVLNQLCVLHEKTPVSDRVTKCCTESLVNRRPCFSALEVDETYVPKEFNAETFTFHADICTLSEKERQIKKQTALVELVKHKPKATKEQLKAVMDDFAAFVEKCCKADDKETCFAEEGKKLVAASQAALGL

Kd [nM]	Binder
31.1	B1
35.5	B2
34.4	B3

target: T2, mouse serum albumin (mouse, UniProt P07724 25-608); experiment: ELISA, serum albumin immobilized on plate, in PBST-C
Procedure: (§1) Samples of proteins of Example 2 were subjected to ELISA serum albumin cross-reactivity analyses as described in WO2016156596. 100 μl of 20 nM serum albumin in PBS per well were immobilized in a Maxisorp plate (Nunc, Denmark) overnight at 4° C. After washing 5 times with 300 μl PBST (PBS supplemented with 0.1% Tween 20), the wells were blocked with 300 μl PBST-C(PBST supplemented with 0.25% casein) for 2 h at room temperature with shaking at 450 rpm on a Titramax 1000 shaker (Heidolph, Germany). After washing 5 times as described above, 100 μl/well or 50 μl/well proteins #2, #3, or #4 (concentrations ranging from 100 nM to 0.01 pM for each protein) in PBST-C were applied and incubated for 2 h at room temperature with shaking at 450 rpm. After washing 5 times as described above, binding of the proteins was detected using 100 μl rabbit anti-designed ankyrin repeat domain monoclonal antibody in PBST-C for 1 h at room temperature with shaking at 450 rpm. After washing 5 times as described above, bound anti-designed ankyrin repeat domain antibody was detected using 100 μl/well goat anti-rabbit IgG-HRP conjugate in PBST-C for 1 h at room temperature with shaking at 450 rpm. After washing 5 times as described above, the ELISA was then developed using 100 μl BM soluble blue POD substrate (Roche, Switzerland), diluted 1:4 in water. The reaction was stopped after 5 min using 100 μl 1 M H2504. The OD (OD 450 nm-OD 620 nm) was then recorded. EC 50 values were determined using Graph Pad Prism (Table 3). […] The measured EC₅₀ values for cynomolgus monkey serum albumin binding are below 20 nM for proteins #2, #3, and #4.

EC50 [nM]	Binder
< 30	B1
< 30	B2
< 30	B3

target: T1, human serum albumin; experiment: as above
Procedure: as §1

EC50 [nM]	Binder
< 1	B1
< 1	B2
< 1	B3

target: T3, cynomolgus monkey serum albumin (cynomolgus monkey (Macaca fascicularis), UniProt A2V9Z4 25-608); experiment: as above
Procedure: as §1

T3 sequence (A2V9Z4 25-608 limits assumed): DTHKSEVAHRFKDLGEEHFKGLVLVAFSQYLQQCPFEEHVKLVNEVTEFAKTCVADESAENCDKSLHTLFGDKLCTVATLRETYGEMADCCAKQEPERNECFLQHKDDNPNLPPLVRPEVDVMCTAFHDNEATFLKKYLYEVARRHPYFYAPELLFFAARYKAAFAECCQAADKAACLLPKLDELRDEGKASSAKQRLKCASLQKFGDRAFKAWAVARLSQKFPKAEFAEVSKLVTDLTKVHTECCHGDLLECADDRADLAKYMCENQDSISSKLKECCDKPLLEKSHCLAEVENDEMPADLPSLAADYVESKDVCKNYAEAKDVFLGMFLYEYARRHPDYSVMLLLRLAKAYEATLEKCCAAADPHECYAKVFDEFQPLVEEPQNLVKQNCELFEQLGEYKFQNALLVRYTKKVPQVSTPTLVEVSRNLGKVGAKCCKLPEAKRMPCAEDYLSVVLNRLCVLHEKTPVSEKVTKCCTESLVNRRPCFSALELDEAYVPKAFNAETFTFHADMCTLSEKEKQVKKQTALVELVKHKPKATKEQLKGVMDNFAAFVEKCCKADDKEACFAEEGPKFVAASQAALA

EC50 [nM]	Binder
< 20	B1
< 20	B2
< 20	B3

target: T2, mouse serum albumin; experiment: as above; remark: another data set of the same source
Procedure: as §1

EC50 [nM]	Binder
9.6	B1
14.7	B2
24	B3

target: T1, human serum albumin; experiment: as above; remark: another data set of the same source
Procedure: as §1

EC50 [nM]	Binder
0.32	B1
0.64	B2
0.84	B3

target: T3, cynomolgus monkey serum albumin; experiment: as above; remark: another data set of the same source
Procedure: as §1

EC50 [nM]	Binder
2.8	B1
6.8	B2
13.1	B3
